Laboratory results published in patent publication US20240116985A1, “STAPLED PEPTIDES AND METHODS THEREOF” (priority 2020, published 2024).
Starred links: 1 amine or outer side, 2 acyl side, 3 side chain; linkers in the order of their positions; H or OH if unused. Positions of bridges follow the written chain, without caps; N, C: chain ends. Non-standard residues stand in square brackets, D forms with d. Primed or numbered codes have the meaning given here. PyrS2″ = (S)-3-amino-1-((pent-4-en-1-yloxy)carbonyl)pyrrolidine-3-carboxylic acid (stapling residue), C=CCCCOC(=O)N1CC[C@@](N[*:1])(C(=O)[*:2])C1; B5(16) = 2-amino-2-(pent-4-en-1-yl)hept-6-enoic acid = 2,2-bis(4-pentenyl)glycine (stitching residue), C=CCCCC(CCCC=C)(N[*:1])C(=O)[*:2]; B5(4) = 2,2-bis(4-pentenyl)glycine = 2-amino-2-(pent-4-en-1-yl)hept-6-enoic acid (stitching residue), C=CCCCC(CCCC=C)(N[*:1])C(=O)[*:2]; B5(5) = 2,2-bis(4-pentenyl)glycine, 2-amino-2-(pent-4-en-1-yl)hept-6-enoic acid (stitching residue), C=CCCCC(CCCC=C)(N[*:1])C(=O)[*:2]; TfeGA = (S)-2-amino-3-((carboxymethyl)(2,2,2-trifluoroethyl)amino)propanoic acid, O=C([C@H](CN(CC(=O)[*:3])CC(F)(F)F)N[*:1])[*:2]; PyrS2 = (S)-3-amino-1-((pent-4-en-1-yloxy)carbonyl)pyrrolidine-3-carboxylic acid, C=CCCCOC(=O)N1CC[C@@](N[*:1])(C(=O)[*:2])C1; B5(27) = 2-amino-2-(pent-4-en-1-yl)hept-6-enoic acid (two alkene side-chain arms), C=CCCCC(CCCC=C)(N[*:1])C(=O)[*:2]; MePpzAsn = (S)-2-amino-4-(4-methylpiperazin-1-yl)-4-oxobutanoic acid, CN1CCN(C(=O)C[C@H](N[*:1])C(=O)[*:2])CC1; B5(3) = 2,2-bis(4-pentenyl)glycine (stitching residue), C=CCCCC(CCCC=C)(N[*:1])C(=O)[*:2]; AspSH = (S)-2-amino-4-mercapto-4-oxobutanoic acid, O=C(C[C@H](N[*:1])C(=O)[*:2])S[*:3]; B5 = 2-amino-2-(pent-4-en-1-yl)hept-6-enoic acid, C=CCCCC(CCCC=C)(N[*:1])C(=O)[*:2]; Phe(3-CONH2) = NC(=O)c1cccc(C[C@H](N)C(=O)O)c1; Phe(3-COOH) = N[C@@H](Cc1cccc(C(=O)O)c1)C(=O)O; Phe(4-CONH2) = NC(=O)c1ccc(C[C@H](N)C(=O)O)cc1; 2F3MeF = Cc1cccc(C[C@H](N[*:1])C(=O)[*:2])c1F; Phe(2-CONH2) = NC(=O)c1ccccc1C[C@H](N)C(=O)O; Phe(4-Cl) = N[C@@H](Cc1ccc(Cl)cc1)C(=O)O; Phe(2-Cl) = N[C@@H](Cc1ccccc1Cl)C(=O)O; Bta = N[C@@H](Cc1csc2ccccc12)C(=O)O; Lys(iPr) = CC(C)NCCCC[C@H](N)C(=O)O; αAllylPro = C=CC[C@@]1(C(=O)O)CCCN1; tBuAla = CC(C)(C)C[C@H](N)C(=O)O; 3Thi = N[C@@H](Cc1ccsc1)C(=O)O; Cha = N[C@@H](CC1CCCCC1)C(=O)O; S8 = C=CCCCCCC[C@](C)(N)C(=O)O; TfeGA″ = not defined here; hSer = N[C@@H](CCO)C(=O)O; Nle = CCCC[C@H](N)C(=O)O

B1: I-383 (peptide)
peptide: XDAXDEAAFVXXXQ
modifications: not fully specified; N-terminal Ac; PL3 at 1, B5 at 4, S8 at 11 (staples 1-4 and 4-11 by olefin metathesis); 2pyrA at 12; BztA at 13; C-terminal NH2

The binders below were run against full-length beta-Catenin (Uniprot ID P35222) (Homo sapiens (Human)) (UniProt P35222) (assay: fluorescence polarization competition; peptide titrated against 10 nM full-length beta-catenin + 10 nM 5FAM-TCF4(10-53)).

Binder	IC50 [nM]
Ac-[αAllylPro]N[Cha][B5(5)]DQ[Lys(iPr)]AFL[PyrS2″][Phe(3-CONH2)][Bta][hSer]-NH2 (staple 1-4, 4-11) [I-2166]	1590
Ac-[αAllylPro]N[Cha][B5(5)]DQ[Lys(iPr)]AFN[PyrS2″]Q[Bta][hSer]-NH2 (staple 1-4, 4-11) [I-2171]	10000
Ac-[αAllylPro]D[tBuAla][B5(5)]D[TfeGA]AAFL[PyrS2″][3Thi][Bta][Phe(3-CONH2)]-NH2 (staple 1-4, 4-11; also: staples hydrogenated: -CH=CH- reduced to -CH2-CH2-) [I-1718]	382
Ac-[αAllylPro]D[tBuAla][B5(4)]D[TfeGA″]AAFL[PyrS2″][3Thi][Bta]T-NH2 (staple 1-4, 4-11; reading uncertain) [I-1706]	24
Ac-[αAllylPro]N[Cha][B5(5)]DQ[Lys(iPr)]AFN[PyrS2″]N[Bta][hSer]-NH2 (staple 1-4, 4-11) [I-2170]	10000
Ac-[αAllylPro]N[Cha][B5(5)]DQ[Lys(iPr)]AFN[PyrS2″][Phe(4-CONH2)][Bta][hSer]-NH2 (staple 1-4, 4-11) [I-2169]	10000
Ac-[αAllylPro]D[tBuAla][B5(4)]D[TfeGA]AAFL[PyrS2″][3Thi][Bta]N-NH2 (staple 1-4, 4-11; also: -CH=CH- in each staple reduced to -CH2-CH2-) [I-1715]	95
Ac-[αAllylPro]D[tBuAla][B5(16)]D[TfeGA]AAFL[PyrS2″][3Thi][Bta]N-NH2 (staple 1-4, 4-11) [I-1705]	9
Ac-[αAllylPro]D[tBuAla][B5(4)]D[TfeGA]AAFL[PyrS2″][3Thi][Bta][Phe(2-CONH2)]-NH2 (staple 1-4, 4-11) [I-1707]	19
Ac-[αAllylPro]N[Cha][B5(4)]DQ[Lys(iPr)]AFN[PyrS2″]F[Bta][hSer]-NH2 (staple 1-4, 4-11) [I-2167]	199
Ac-[αAllylPro]N[Cha][B5(5)]DQ[Lys(iPr)]AFN[PyrS2″]Y[Bta][hSer]-NH2 (staple 1-4, 4-11) [I-2172]	10000
B1	5000
Ac-[αAllylPro]D[tBuAla][B5(3)]D[Phe(3-COOH)]AAFL[PyrS2″][2F3MeF][Phe(4-Cl)]S-NH2 (staple 1-4, 4-11) [I-2222]	84
Ac-[αAllylPro]D[tBuAla][B5(4)]D[TfeGA]AAFL[PyrS2″][3Thi][Bta][Phe(3-CONH2)]-NH2 (staple 1-4, 4-11) [I-1708]	29
Ac-[αAllylPro]N[Cha][B5(5)]DQ[Lys(iPr)]A[Phe(4-CONH2)]N[PyrS2″]F[Bta][hSer]-NH2 (staple 1-4, 4-11) [I-2174]	10000
Ac-[αAllylPro]D[tBuAla][B5(3)]D[Phe(3-COOH)]QAFL[PyrS2″][2F3MeF][Phe(4-Cl)]A-NH2 (staple 1-4, 4-11) [I-2223]	50
Ac-[αAllylPro]D[tBuAla][B5(5)]D[TfeGA]AAFL[PyrS2″][3Thi][Bta][Phe(2-CONH2)]-NH2 (staple 1-4, 4-11; also: staples hydrogenated: -CH=CH- reduced to -CH2-CH2-) [I-1717]	249
Ac-[αAllylPro]N[Cha][B5(5)]DQ[Lys(iPr)]AFN[PyrS2″][Phe(3-CONH2)][Bta]Q-NH2 (staple 1-4, 4-11) [I-2164]	1180
Ac-[αAllylPro]D[tBuAla][B5(4)]D[TfeGA]AAFL[PyrS2″][3Thi][Bta]T-NH2 (staple 1-4, 4-11; also: -CH=CH- in each staple reduced to -CH2-CH2-) [I-1716]	224
Ac-[αAllylPro]N[Cha][B5(4)]DQ[Lys(iPr)]AFN[PyrS2″][Phe(2-CONH2)][Bta][hSer]-NH2 (staple 1-4, 4-11) [I-2168]	212
Ac-[αAllylPro]N[Cha][B5(5)]DQ[Lys(iPr)]AFL[PyrS2″]F[Bta][hSer]-NH2 (staple 1-4, 4-11) [I-2165]	441
Ac-[αAllylPro]D[tBuAla][B5(5)]DDAAFN[PyrS2″][3Thi]WQ-NH2 (staple 1-4, 4-11) [I-2175]	19
Ac-[αAllylPro]N[Cha][B5(5)]DQ[Lys(iPr)]AFL[PyrS2″][Phe(3-CONH2)][Bta]Q-NH2 (staple 1-4, 4-11) [I-2163]	3720
Ac-[αAllylPro][AspSH][tBuAla][B5]DDAAFN[PyrS2][Phe(2-Cl)][Bta]Q-NH2 (staple 1-4, 4-11; not fully specified) [I-1721]	139
Ac-[αAllylPro]N[Cha][B5(5)]DQ[Lys(iPr)]A[Phe(2-CONH2)]N[PyrS2″]F[Bta][hSer]-NH2 (staple 1-4, 4-11) [I-2173]	3070

The binders below were run against full-length beta-Catenin (Uniprot ID P35222) (Homo sapiens (Human)) (UniProt P35222) (assay: fluorescence polarization competition; displacement of 5FAM-TCF4(10-53) from full-length beta-catenin).
Target sequence in this assay (P35222 whole entry): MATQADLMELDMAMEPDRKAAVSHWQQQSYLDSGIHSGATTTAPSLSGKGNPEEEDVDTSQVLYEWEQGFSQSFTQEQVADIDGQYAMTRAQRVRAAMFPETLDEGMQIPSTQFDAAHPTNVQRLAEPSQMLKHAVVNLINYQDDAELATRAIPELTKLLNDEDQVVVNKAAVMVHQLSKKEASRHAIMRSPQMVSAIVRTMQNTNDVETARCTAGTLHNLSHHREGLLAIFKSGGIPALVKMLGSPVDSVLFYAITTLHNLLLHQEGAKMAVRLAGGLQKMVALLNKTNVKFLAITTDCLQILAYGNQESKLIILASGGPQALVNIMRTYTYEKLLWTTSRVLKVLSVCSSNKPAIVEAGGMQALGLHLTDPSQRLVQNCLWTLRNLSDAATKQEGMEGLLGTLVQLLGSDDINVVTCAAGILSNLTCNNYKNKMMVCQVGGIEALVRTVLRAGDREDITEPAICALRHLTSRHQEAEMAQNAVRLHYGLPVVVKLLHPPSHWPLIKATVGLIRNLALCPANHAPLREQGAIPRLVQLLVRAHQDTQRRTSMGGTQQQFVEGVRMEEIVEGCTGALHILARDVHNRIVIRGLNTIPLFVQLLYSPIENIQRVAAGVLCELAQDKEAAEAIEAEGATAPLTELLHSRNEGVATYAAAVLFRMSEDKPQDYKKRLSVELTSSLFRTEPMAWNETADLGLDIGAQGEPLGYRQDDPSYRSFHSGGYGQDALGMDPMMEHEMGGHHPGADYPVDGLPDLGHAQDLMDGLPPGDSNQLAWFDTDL

Binder	IC50 [nM]
Ac-[αAllylPro]DY[B5(27)]DDAAFL[PyrS2][3Thi][Bta]Q-NH2 (staple 1-4, 4-11) [I-1511: Ac-PL3-Asp-Tyr-B5-Asp-Asp-Ala-Ala-Phe-Leu-PyrS2-3Thi-BztA-Gln-NH2]	5
Ac-[αAllylPro]D[Nle][B5(5)]DEAAF[hSer][S8]F[Bta]Q-NH2 (staple 1-4, 4-11) [I-1525: Ac-PL3-Asp-nLeu-B5-Asp-Glu-Ala-Ala-Phe-Hse-S8-Phe-BztA-Gln-NH2]	22
Ac-[αAllylPro]DT[B5(5)]DDAAFL[PyrS2″][3Thi][Bta][hSer]-NH2 (staple 1-4, 4-11) [I-1516: Ac-PL3-Asp-Thr-B5-Asp-Asp-Ala-Ala-Phe-Leu-PyrS2-3Thi-BztA-Hse-NH2]	30
Ac-[αAllylPro]D[Nle][B5(5)]DEAAF[hSer][S8]F[Bta]Q-NH2 (staple 1-4, 4-11; also: staple isomer, earlier eluting HPLC peak) [I-1524: Ac-PL3-Asp-nLeu-B5-Asp-Glu-Ala-Ala-Phe-Hse-S8-Phe-BztA-Gln-NH2]	17
Ac-[αAllylPro]DS[B5(5)]DDAAFL[PyrS2″][3Thi][Bta]Q-NH2 (staple 1-4, 4-11) [I-1513: Ac-PL3-Asp-Ser-B5-Asp-Asp-Ala-Ala-Phe-Leu-PyrS2-3Thi-BztA-Gln-NH2]	21
Ac-[αAllylPro]D[Nle][B5(5)]DEAAFQ[S8]F[Bta]Q-NH2 (staple 1-4, 4-11) [I-1522: Ac-PL3-Asp-nLeu-B5-Asp-Glu-Ala-Ala-Phe-Gln-S8-Phe-BztA-Gln-NH2]	6
Ac-[αAllylPro]D[Nle][B5(5)]DEAAFQ[S8]F[Bta]Q-NH2 (staple 1-4, 4-11; also: staple isomer, earlier eluting HPLC peak) [I-1521: Ac-PL3-Asp-nLeu-B5-Asp-Glu-Ala-Ala-Phe-Gln-S8-Phe-BztA-Gln-NH2]	16
Ac-[αAllylPro]DF[B5(27)]DDAAFL[PyrS2][3Thi][Bta][hSer]-NH2 (staple 1-4, 4-11) [I-1510: Ac-PL3-Asp-Phe-B5-Asp-Asp-Ala-Ala-Phe-Leu-PyrS2-3Thi-BztA-Hse-NH2]	10
Ac-[αAllylPro]DN[B5(5)]DDAAFL[PyrS2″][3Thi][Bta][hSer]-NH2 (staple 1-4, 4-11) [I-1518: Ac-PL3-Asp-Asn-B5-Asp-Asp-Ala-Ala-Phe-Leu-PyrS2-3Thi-BztA-Hse-NH2]	23
Ac-[αAllylPro]D[Nle][B5(5)]DEAAFL[S8]F[Bta]Q-NH2 (staple 1-4, 4-11) [I-1523: Ac-PL3-Asp-nLeu-B5-Asp-Glu-Ala-Ala-Phe-Leu-S8-Phe-BztA-Gln-NH2]	29
Ac-[αAllylPro]DY[B5(5)]DDAAFL[PyrS2″][3Thi][Bta][hSer]-NH2 (staple 1-4, 4-11) [I-1512: Ac-PL3-Asp-Tyr-B5-Asp-Asp-Ala-Ala-Phe-Leu-PyrS2-3Thi-BztA-Hse-NH2]	12
Ac-[αAllylPro]DS[B5(4)]DDAAFL[PyrS2″][3Thi][Bta][hSer]-NH2 (staple 1-4, 4-11) [I-1514: Ac-PL3-Asp-Ser-B5-Asp-Asp-Ala-Ala-Phe-Leu-PyrS2-3Thi-BztA-Hse-NH2]	27
Ac-[αAllylPro]D[tBuAla][B5(4)]DDA[MePpzAsn]FL[PyrS2][3Thi][Bta]Q-NH2 (staple 1-4, 4-11) [I-1508: Ac-PL3-Asp-Npg-B5-Asp-Asp-Ala-MePpzAsn-Phe-Leu-PyrS2-3Thi-BztA-Gln-NH2]	87
Ac-[αAllylPro]DN[B5(5)]DDAAFL[PyrS2″][3Thi][Bta]Q-NH2 (staple 1-4, 4-11) [I-1517: Ac-PL3-Asp-Asn-B5-Asp-Asp-Ala-Ala-Phe-Leu-PyrS2-3Thi-BztA-Gln-NH2]	32
Ac-[αAllylPro]DT[B5(5)]DDAAFL[PyrS2″][3Thi][Bta]Q-NH2 (staple 1-4, 4-11) [I-1515: Ac-PL3-Asp-Thr-B5-Asp-Asp-Ala-Ala-Phe-Leu-PyrS2-3Thi-BztA-Gln-NH2]	24
